These are literature values, as cited in patent publication US20110015587A1, “Irrigation Device and Method Using Same” (priority 2009, published 2011).

This series has as its system fibroblasts. Particulars: in six hours; through motility of fibroblasts.

B1: Lactoferrin (protein, UniProt P02788 20-710, looked up)
Lactotransferrin: GRRRSVQWCAVSQPEATKCFQWQRNMRKVRGPPVSCIKRDSPIQCIQAIAENRADAVTLDGGFIYEAGLAPYKLRPVAAEVYGTERQPRTHYYAVAVVKKGGSFQLNELQGLKSCHTGLRRTAGWNVPIGTLRPFLNWTGPPEPIEAAVARFFSASCVPGADKGQFPNLCRLCAGTGENKCAFSSQEPYFSYSGAFKCLRDGAGDVAFIRESTVFEDLSDEAERDEYELLCPDNTRKPVDKFKDCHLARVPSHAVVARSVNGKEDAIWNLLRQAQEKFGKDKSPKFQLFGSPSGQKDLLFKDSAIGFSRVPPRIDSGLYLGSGYFTAIQNLRKSEEEVAARRARVVWCAVGEQELRKCNQWSGLSEGSVTCSSASTTEDCIALVLKGEADAMSLDGGYVYTAGKCGLVPVLAENYKSQQSSDPDPNCVDRPVEGYLAVAVVRRSDTSLTWNSVKGKKSCHTAVDRTAGWNIPMGLLFNQTGSCKFDEYFSQSCAPGSDPRSNLCALCIGDEQGENKCVPNSNERYYGYTGAFRCLAENAGDVAFVKDVTVLQNTDGNNNEAWAKDLKLADFALLCLDGKRKPVTEARSCHLAMAPNHAVVSRMDKVERLKQVLLHQQAKFGRNGSDCPDKFCLFQSETKNLLFNDNTECLARLHGKTTYEKYLGPQYVAGITNLKKCSTSPLLEACEFLRK
As to B1, the “reduction of collagen gel surface area” value is listed as 50%.
